Assay results: patent US10875904B2

Target: ovalbumin peptide SIINFEKL presented on mouse MHC Class I H-2Kb on OP9-DL1 cells (mouse) (UniProt P01901)
Assay: cell-based or functional assay

Sequence of UniProt P01901 (P01901 22-369): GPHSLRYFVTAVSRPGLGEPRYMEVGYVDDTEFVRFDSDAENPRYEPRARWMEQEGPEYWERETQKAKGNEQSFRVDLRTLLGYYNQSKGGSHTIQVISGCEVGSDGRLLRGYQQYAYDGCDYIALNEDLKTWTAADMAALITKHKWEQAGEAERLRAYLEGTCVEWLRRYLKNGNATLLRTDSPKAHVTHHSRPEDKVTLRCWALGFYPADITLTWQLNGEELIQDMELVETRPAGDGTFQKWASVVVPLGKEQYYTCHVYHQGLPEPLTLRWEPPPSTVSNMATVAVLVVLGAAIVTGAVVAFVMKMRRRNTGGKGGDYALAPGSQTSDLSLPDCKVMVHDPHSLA

“OT-1 transgenic TCR (specific for ovalbumin peptide SIINFEKL presented on H-2Kb)” was tested, and the development or survival of double positive (DP) T cells from OT-1 progenitors in OP9-DL1 culture, flow cytometry was > 0.01 µM.
